For assay [1], the target named is clock_mouse Clock (UniProt O08785).
Assay [2] shares this target. The source holds these as a separate data set.
Assay [3] has the same target. The source holds these as a separate data set.

clock_mouse Clock, sequence (O08785 whole entry): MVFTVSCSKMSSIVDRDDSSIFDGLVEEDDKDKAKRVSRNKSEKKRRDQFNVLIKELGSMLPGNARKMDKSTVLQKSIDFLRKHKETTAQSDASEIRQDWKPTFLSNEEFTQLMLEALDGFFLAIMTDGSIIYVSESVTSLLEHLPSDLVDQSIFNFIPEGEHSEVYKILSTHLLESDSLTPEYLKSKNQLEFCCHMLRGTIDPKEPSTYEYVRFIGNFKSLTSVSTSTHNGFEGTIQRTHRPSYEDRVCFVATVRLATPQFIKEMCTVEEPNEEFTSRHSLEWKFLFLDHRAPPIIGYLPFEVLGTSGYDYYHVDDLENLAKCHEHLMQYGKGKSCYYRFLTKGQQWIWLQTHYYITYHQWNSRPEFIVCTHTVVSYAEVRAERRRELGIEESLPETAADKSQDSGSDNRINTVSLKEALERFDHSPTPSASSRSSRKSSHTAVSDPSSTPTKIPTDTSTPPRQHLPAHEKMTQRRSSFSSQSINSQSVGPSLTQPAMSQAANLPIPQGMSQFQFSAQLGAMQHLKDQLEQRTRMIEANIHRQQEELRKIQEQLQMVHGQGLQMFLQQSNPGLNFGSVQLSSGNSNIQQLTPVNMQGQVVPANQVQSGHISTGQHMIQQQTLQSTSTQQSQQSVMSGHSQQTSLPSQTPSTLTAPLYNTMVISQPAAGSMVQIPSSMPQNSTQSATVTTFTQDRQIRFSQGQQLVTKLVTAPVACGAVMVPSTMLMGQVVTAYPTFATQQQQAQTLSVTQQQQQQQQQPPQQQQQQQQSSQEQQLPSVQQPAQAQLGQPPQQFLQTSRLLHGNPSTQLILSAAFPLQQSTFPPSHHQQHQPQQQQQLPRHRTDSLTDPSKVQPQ
Basic helix-loop-helix ARNT-like protein 1 (Mus musculus), Q9WTL8-4 L95E;L150E;W427A, sequence (Q9WTL8 other isoform, or with tags, fused parts or gaps L95E;L150E;W427A): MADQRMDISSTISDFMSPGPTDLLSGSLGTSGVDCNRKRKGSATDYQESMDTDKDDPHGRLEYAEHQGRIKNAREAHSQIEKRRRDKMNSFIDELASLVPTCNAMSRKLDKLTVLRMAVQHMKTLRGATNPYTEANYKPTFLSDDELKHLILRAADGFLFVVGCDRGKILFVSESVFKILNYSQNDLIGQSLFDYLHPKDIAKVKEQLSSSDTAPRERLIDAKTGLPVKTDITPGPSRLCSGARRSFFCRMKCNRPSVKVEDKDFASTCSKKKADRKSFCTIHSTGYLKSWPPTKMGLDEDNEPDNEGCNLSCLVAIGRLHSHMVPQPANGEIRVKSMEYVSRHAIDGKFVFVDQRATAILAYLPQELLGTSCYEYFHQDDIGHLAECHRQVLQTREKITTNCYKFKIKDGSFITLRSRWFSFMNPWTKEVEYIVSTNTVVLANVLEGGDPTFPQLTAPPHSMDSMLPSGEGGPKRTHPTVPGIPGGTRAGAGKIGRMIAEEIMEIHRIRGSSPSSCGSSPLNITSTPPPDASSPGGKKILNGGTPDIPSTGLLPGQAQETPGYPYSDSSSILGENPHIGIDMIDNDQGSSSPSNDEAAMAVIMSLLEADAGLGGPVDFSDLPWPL
Basic helix-loop-helix ARNT-like protein 1 (Mus musculus), Q9WTL8-4 L95E, sequence (Q9WTL8 other isoform, or with tags, fused parts or gaps L95E): as the sequence (Q9WTL8 other isoform, or with tags, fused parts or gaps L95E;L150E;W427A) above
Basic helix-loop-helix ARNT-like protein 1 (Mus musculus), Q9WTL8-4 W427A, sequence (Q9WTL8 other isoform, or with tags, fused parts or gaps W427A): as the sequence (Q9WTL8 other isoform, or with tags, fused parts or gaps L95E;L150E;W427A) above
Basic helix-loop-helix ARNT-like protein 1 (Mus musculus), Q9WTL8-4 V435R, sequence (Q9WTL8 other isoform, or with tags, fused parts or gaps V435R): as the sequence (Q9WTL8 other isoform, or with tags, fused parts or gaps L95E;L150E;W427A) above
Basic helix-loop-helix ARNT-like protein 1 (Mus musculus), Q9WTL8-4 I317D, sequence (Q9WTL8 other isoform, or with tags, fused parts or gaps I317D): as the sequence (Q9WTL8 other isoform, or with tags, fused parts or gaps L95E;L150E;W427A) above
Basic helix-loop-helix ARNT-like protein 1 (Mus musculus), Q9WTL8-4 F423R, sequence (Q9WTL8 other isoform, or with tags, fused parts or gaps F423R): as the sequence (Q9WTL8 other isoform, or with tags, fused parts or gaps L95E;L150E;W427A) above
Basic helix-loop-helix ARNT-like protein 1 (Mus musculus), Q9WTL8-4 F423R;V435R, sequence (Q9WTL8 other isoform, or with tags, fused parts or gaps F423R;V435R): as the sequence (Q9WTL8 other isoform, or with tags, fused parts or gaps L95E;L150E;W427A) above
Basic helix-loop-helix ARNT-like protein 1 (Mus musculus), Q9WTL8-4 L150E, sequence (Q9WTL8 other isoform, or with tags, fused parts or gaps L150E): as the sequence (Q9WTL8 other isoform, or with tags, fused parts or gaps L95E;L150E;W427A) above
Basic helix-loop-helix ARNT-like protein 1 (Mus musculus), Q9WTL8-4 L115E, sequence (Q9WTL8 other isoform, or with tags, fused parts or gaps L115E): as the sequence (Q9WTL8 other isoform, or with tags, fused parts or gaps L95E;L150E;W427A) above

In the case of “Basic helix-loop-helix ARNT-like protein 1 (Mus musculus), Q9WTL8-4 F423R”, the “effect of a mutation on the interaction” value is “decreasing interaction strength” with clock_mouse Clock [1] and “with no effect” with clock_mouse Clock [2].
The matching figures for “Basic helix-loop-helix ARNT-like protein 1 (Mus musculus), Q9WTL8-4 F423R;V435R”: “disrupting interaction strength” and “decreasing interaction strength”.
The matching figures for “Basic helix-loop-helix ARNT-like protein 1 (Mus musculus), Q9WTL8-4 I317D”: “decreasing interaction strength” and “disrupting interaction strength”.
The matching figures for “Basic helix-loop-helix ARNT-like protein 1 (Mus musculus), Q9WTL8-4 L95E”: “with no effect” and “disrupting interaction strength”.
For the substance “Basic helix-loop-helix ARNT-like protein 1 (Mus musculus), Q9WTL8-4 L95E;L150E;W427A”, the “effect of a mutation on the interaction” value in the assay with clock_mouse Clock [1] and with clock_mouse Clock [2] was “disrupting interaction strength” each time.
As for “Basic helix-loop-helix ARNT-like protein 1 (Mus musculus), Q9WTL8-4 L115E”, the “effect of a mutation on the interaction” value with clock_mouse Clock [2] is given as “disrupting interaction strength”.
Consider “Basic helix-loop-helix ARNT-like protein 1 (Mus musculus), Q9WTL8-4 L150E”, for which the “effect of a mutation on the interaction” value with clock_mouse Clock [2] is “with no effect”; with clock_mouse Clock [3], “decreasing interaction strength”.
With “Basic helix-loop-helix ARNT-like protein 1 (Mus musculus), Q9WTL8-4 V435R”, the “effect of a mutation on the interaction” value is “disrupting interaction strength” with clock_mouse Clock [1] and “with no effect” with clock_mouse Clock [2].
The like results for “Basic helix-loop-helix ARNT-like protein 1 (Mus musculus), Q9WTL8-4 W427A” were, in that order, “with no effect” and “decreasing interaction strength”.

These data come from IntAct's records for PubMed 22653727.
